# Test results reported in patent publication US20210340273A1 (INHLBRX, published 2021).
# Tests used:
# [1] = molecular target: T1, human 5T4 (trophoblast glycoprotein), endogenous on the cell surface (human, UniProt Q13641 32-420); experiment: printed as Affinity 5T4; apparent affinity from flow cytometry titration on Ovcar-5 cells
# T1 construct: also called TPBG; 5T4 oncofetal antigen
# T1 sequence: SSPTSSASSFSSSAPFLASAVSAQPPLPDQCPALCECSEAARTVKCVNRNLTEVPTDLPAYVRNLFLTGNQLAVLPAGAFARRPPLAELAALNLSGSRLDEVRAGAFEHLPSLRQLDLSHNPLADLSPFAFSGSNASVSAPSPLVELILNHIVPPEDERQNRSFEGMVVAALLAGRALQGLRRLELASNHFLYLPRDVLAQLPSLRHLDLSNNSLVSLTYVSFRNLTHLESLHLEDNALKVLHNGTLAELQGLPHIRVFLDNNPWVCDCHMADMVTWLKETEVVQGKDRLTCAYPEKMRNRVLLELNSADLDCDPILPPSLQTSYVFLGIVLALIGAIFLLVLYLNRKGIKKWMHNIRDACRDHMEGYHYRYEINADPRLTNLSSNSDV
# Experimental: Binding of exemplary 5T4-targeting constrained CD3 engaging constructs set forth in Table E3 to CD3 on the surface of primary T cells and 5T4 expressing cells (Ovcar-5) was assessed by flow cytometry. The T cells were primary T-cells that were negatively enriched from PBMCs isolated from healthy human donor leukopaks. Bound construct was detected with fluorophore-conjugated secondary antibodies specific for the human Fc (anti-human IgG APC secondary antibody) and binding was measured by flow cytometry. Cells incubated with secondary antibody only served as negative controls. The results, from flow cytometry histograms displaying normalized cell counts versus fluorescence at 200 nM of each construct, are shown in FIG. 4A (cx3253), FIG. 4B (cx3264), FIG. 4C (cx3497), FIG. 4D (cx3499), FIG. 4E (cx3547), FIG. 4F (cx3546), FIG. 4G (cx4224), FIG. 4H (cx4913), FIG. 4I (cx3265), […] (cx4912), FIG. 4K (cx3262), FIG. 4L (cx4911), and FIG. 4M (cx4910). […] However, as shown in the top right and bottom panels of each of the figures, the same constructs were not able to bind to T cells in isolation.
# Table E4 summarizes the affinity of exemplary molecules for 5T4 or CD3, as determined from flow cytometry, in these studies.
# [2] = molecular target: T1, human 5T4 (trophoblast glycoprotein), …; experiment: flow cytometry (FL4H median), sdAb-Fc titrated on 5T4-positive T47D cells
# Experimental: (§1) Specificity and relative affinity were assessed for purified sdAb-Fcs on 5T4-expressing cells. Binding of 5T4-sdAb-Fc fusion proteins was assessed by flow cytometry using 5T4-expressing cells. A titration series of the fusion protein was incubated with the 5T4-expressing cell lines (approximately 2.5×10⁴ to 5×10⁴ cells/well) for 30 minutes at 4 degrees Celsius in FACS Buffer (PBS 1% BSA, 0.1% NaN₃ pH 7.4) in 96 well plates. Following three wash steps in FACS buffer, an APC-conjugated anti-human Fcγ specific secondary antibody (Jackson ImmunoResearch) was added and incubated for 30 minutes at 4 degrees Celsius. Following three additional wash steps in FACS buffer bound antibody was detected via flow cytometry (IQue Intellicyte).
# (§2) Humanized variant of the 5T4 sdAbs were tested for their ability to bind 5T4 expressing cells substantially as described in Example 2, and binding was compared to the parental sdAb. 5T4 expressing T47D cells were used in these studies. Results are shown in FIGS. 2A-2F, which confirm binding of the humanized variants. In some cases, binding was increased compared to the parental sdAb.
# [3] = molecular target: T1, human 5T4 (trophoblast glycoprotein), …; experiment: flow cytometry (FL4), sdAb-Fc titrated on HEK-293 freestyle (293FS) cells endogenously expressing 5T4
# Experimental: FIGS. 1A-B depict the ability of various single domain antibodies targeting 5T4 to bind cell surface 5T4. Binding was assessed by flow cytometry on HEK-293 freestyle cells endogenously expressing 5T4.
# as §1
# [4] = molecular target: T1, human 5T4 (trophoblast glycoprotein), …; experiment: flow cytometry (FL4H median), sdAb-Fc titrated on 5T4-positive T47D cells; remark: listed apart in the source
# Experimental: as §1, §2
# [5] = molecular target: T1, human 5T4 (trophoblast glycoprotein), …; experiment: as above; remark: listed apart in the source
# Experimental: as §1, §2
# [6] = molecular target: T1, human 5T4 (trophoblast glycoprotein), …; experiment: flow cytometry on 5T4-positive OVCAR5 (Ovcar-5) cells, anti-human IgG secondary; titration
# Experimental: FIGS. 4A-4M depict the binding of various 5T4-target constrained CD3 engaging constructs to the 5T4 positive Ovcar-5 cell line (top left) and the lack of binding to primary human T-cells (top right). […] Binding was assessed by flow cytometry using an anti-human IgG APC secondary antibody. The histograms display the normalized cell counts vs fluorescence at 200 nM of each construct.
# Binding of exemplary 5T4-targeting constrained CD3 engaging constructs set forth in Table E3 to CD3 on the surface of primary T cells and 5T4 expressing cells (Ovcar-5) was assessed by flow cytometry. The T cells were primary T-cells that were negatively enriched from PBMCs isolated from healthy human donor leukopaks. Bound construct was detected with fluorophore-conjugated secondary antibodies specific for the human Fc (anti-human IgG APC secondary antibody) and binding was measured by flow cytometry. Cells incubated with secondary antibody only served as negative controls. […] The results, from flow cytometry histograms displaying normalized cell counts versus fluorescence at 200 nM of each construct, are shown in FIG. 4A (cx3253), FIG. 4B (cx3264), FIG. 4C (cx3497), FIG. 4D (cx3499), FIG. 4E (cx3547), FIG. 4F (cx3546), FIG. 4G (cx4224), FIG. 4H (cx4913), FIG. 4I (cx3265), […] (cx4912), FIG. 4K (cx3262), FIG. 4L (cx4911), and FIG. 4M (cx4910). […]
Binder,Kd [1],EC50 (read off the curve) [5],further results
"cx3253, 5T4-targeted constrained CD3 engaging construct with a 41BB binding domain (bispecific antibody, Heterodimeric multispecific construct (5T4 x CD3 x 41BB)) chain 1: QVQLVQSGGGLVQAGGSLRLSCAASRRPFSSKTMAWFRQTPGKEREFVAAVRWIGGATRYTDSVKGRFSISKDNAINTVYLQMNSLKSEDTAVYYCAAGQAWGTKFTDYSDWGQGTQVTVKPDKTHTCPPCPAPELLGGPSVFLFPPKPKDTLMISRTPEVTCVVVDVSHEDPEVKFNWYVDGVEVHNAKTKPREEQYNSTYRVVSVLTVLHQDWLNGKEYKCKVSNKALPAPIEKTISKAKGQPREPQVYTLPPCRDELTKNQVSLWCLVKGFYPSDIAVEWESNGQPENNYKTTPPVLDSDGSFFLYSKLTVDKSRWQQGNVFSCSVMHEALHNHYTQKSLSLSPTGGSGGGGIEPDIGGSGGSEVQLVESGGGLVQPGGSLRLSCAASGFTFNTYAMNWVRQAPGKCLEWVARIRSKYNNYATYYADSVKGRFTISRDDAKNTLYLQMSSLRAEDTAVYYCVRHGNFGNSYVSWFAYWGQGTLVTVKPQVQLVQSGGGLVQAGASLRLSCVASGRTRSLRTMAWFRQAPGKERIFVAAISWRSDSTYYADSVKGRFTISRDNAKNTAYLQMNTLKPEDTAVYYCAAGGGWLATTPDEYTYWGQGTLVTVKP chain 2: not shown",0.12 nM,–,–
"14B5 sdAb-Fc (Fc fusion, not shown: a dimerising Fc or GST, Camelid derived sdAb tested as sdAb-Fc; also called L14B5) QVQLVQSGGGLVQAGDSLTLSCAVSERPFGTYAMGWFRQAPGRERDLVAAVSRNGGASQYGDSVKGRFSISRDNIKNTMYLQMNSLKPEDTAVYYCAARSAAYSRSSEVYTGKDEYYYWGQGTQVTVKP",–,–,EC50 (read off the curve) [2]: ~0.4 nM; EC50 (read off the curve) [3]: ~0.5 nM; EC50 (read off the curve) [4]: ~0.8 nM
"12E9 sdAb-Fc (Fc fusion, not shown: a dimerising Fc or GST, Camelid derived sdAb tested as sdAb-Fc; also called L12E9; 12E9-Fc) QVQLVQSGGGLVQAGGSLRLSCAASRRPFSSKTMAWFRQTPGKEREFVAAVRWIGGATRYTDSVKGRFSISKDNAINTVYLQMNSLKSEDTAVYYCAAGQAWGTKFTDYSDWGQGTQVTVKP",–,~0.1 nM,EC50 (read off the curve) [2]: ~0.2 nM; EC50 (read off the curve) [3]: ~0.1 nM
"hz12E9v5 sdAb-Fc (Fc fusion, Humanized variant of 12E9, linked to a human Fc; not shown: human Fc) EVQLVESGGGEVQPGGSLRLSCAASRRPFSSKTMAWFRQAPGKEREFVAAVRWIGGATRYTESVKGRFTISRDNAKNTLYLQMSSLRAEDTAVYYCAAGQAWGTKFTDYSDWGQGTLVTVKP",–,~0.1 nM,–
"hz12E9v7 sdAb-Fc (Fc fusion, Humanized variant of 12E9, linked to a human Fc; not shown: human Fc) EVQLVESGGGEVQPGGSLRLSCAASRRPFSSKTMAWFRQAPGKEREFVAAVRWIGGATRYTDSVKGRFSISKDNAKNTVYLQMSSLRAEDTAVYYCAAGQAWGTKFTDYSDWGQGTLVTVKP",–,~0.1 nM,–
"hz12E9v8 sdAb-Fc (Fc fusion, Humanized variant of 12E9, linked to a human Fc; not shown: human Fc) EVQLVESGGGEVQPGGSLRLSCAASRRPFSSKTMAWFRQAPGKEREFVAAVRWIGGATRYAESVKGRFTISRDNAINTVYLQMNSLKSEDTAVYYCAAGQAWGTKFTDYSDWGQGTLVTVKP",–,~0.1 nM,–
"cx3497, 5T4-targeted constrained CD3 engaging construct with a 41BB binding domain (bispecific antibody, Heterodimeric multispecific construct (5T4 x CD3 x 41BB)) chain 1: QVQLVQSGGGLVQAGGSLRLSCAASRRPFSSKTMAWFRQTPGKEREFVAAVRWIGGATRYTDSVKGRFSISKDNAINTVYLQMNSLKSEDTAVYYCAAGQAWGTKFTDYSDWGQGTQVTVKPDKTHTCPPCPAPELLGGPSVFLFPPKPKDTLMISRTPEVTCVVVDVSHEDPEVKFNWYVDGVEVHNAKTKPREEQYNSTYRVVSVLTVLHQDWLNGKEYKCKVSNKALPAPIEKTISKAKGQPREPQVYTLPPCRDELTKNQVSLWCLVKGFYPSDIAVEWESNGQPENNYKTTPPVLDSDGSFFLYSKLTVDKSRWQQGNVFSCSVMHEALHNHYTQKSLSLSPTGGSGGGGIEPDIGGSGGSEVQLVESGGGLVQPGGSLRLSCAASGFTFNTYAMNWVRQAPGKCLEWVARIRSKYNNYATYYADSVKGRFTISRDDAKNTLYLQMSSLRAEDTAVYYCVRHGNFGNSYVSWFAYWGQGTLVTVKPQVQLLQSGGGLVQAGGSLILSCAVSGRPFSSSAMGWFRQAPGKERETVAAVSRNGGSSYYADFVKGRFTISRDNDKNTVYLQMNSLKPEDTAVYYCAARSAAYSRSSETYTEKHDYTYWGQGTQVTVKP chain 2: not shown",0.646 nM,–,EC50 (read off the curve) [6]: ~0.7 nM
"cx3499, 5T4-targeted constrained CD3 engaging construct with a 41BB binding domain (bispecific antibody, Heterodimeric multispecific construct (5T4 x CD3 x 41BB)) chain 1: QVQLVQSGGGLVQAGGSLRLSCAASRRPFSSKTMAWFRQTPGKEREFVAAVRWIGGATRYTDSVKGRFSISKDNAINTVYLQMNSLKSEDTAVYYCAAGQAWGTKFTDYSDWGQGTQVTVKPDKTHTCPPCPAPELLGGPSVFLFPPKPKDTLMISRTPEVTCVVVDVSHEDPEVKFNWYVDGVEVHNAKTKPREEQYNSTYRVVSVLTVLHQDWLNGKEYKCKVSNKALPAPIEKTISKAKGQPREPQVYTLPPCRDELTKNQVSLWCLVKGFYPSDIAVEWESNGQPENNYKTTPPVLDSDGSFFLYSKLTVDKSRWQQGNVFSCSVMHEALHNHYTQKSLSLSPTGGSGGGGIEPDIGGSGGSEVQLVESGGGLVQPGGSLRLSCAASGFTFNTYAMNWVRQAPGKCLEWVARIRSKYNNYATYYADSVKGRFTISRDDAKNTLYLQMSSLRAEDTAVYYCVRHGNFGNSYVSWFAYWGQGTLVTVKPQVQLVQSGGGLVQAGDSLTLSCAVSERPFGTYAMGWFRQAPGRERDLVAAVSRNGGASQYGDSVKGRFSISRDNIKNTMYLQMNSLKPEDTAVYYCAARSAAYSRSSEVYTGKDEYYYWGQGTQVTVKP chain 2: not shown",0.653 nM,–,EC50 (read off the curve) [6]: ~0.7 nM
